Results published in article PMC8501970, “Structural basis for activation of Swi2/Snf2 ATPase RapA by RNA polymerase” (Nucleic Acids Research, 2021).

Key:
RNAP β subunit = target: T1, RNAP β subunit (Escherichia coli, UniProt P0A8V2 1-1342); assay: cryo-EM structure; RapA–RNAP complex purified by gel filtration, 10 μM incubated with 25 μM DNA/RNA hybrid in 20 mM Tris–HCl pH 7.5, 50 mM NaCl, 5 mM MgCl2, 0.2 mM AMPPNP at 37°C for 10 min; 8 mM CHAPSO added before grids; 3.4 Å map; conditions: both partners purified
T1 construct: RNA polymerase beta subunit, Escherichia coli, as in the core enzyme m2; Stood in the structure as a subunit of the RNAP elongation complex; also called β flap tip helix (FTH) lies in it; source: part of the purified E. coli RNAP core enzyme
T1 sequence (P0A8V2 whole entry): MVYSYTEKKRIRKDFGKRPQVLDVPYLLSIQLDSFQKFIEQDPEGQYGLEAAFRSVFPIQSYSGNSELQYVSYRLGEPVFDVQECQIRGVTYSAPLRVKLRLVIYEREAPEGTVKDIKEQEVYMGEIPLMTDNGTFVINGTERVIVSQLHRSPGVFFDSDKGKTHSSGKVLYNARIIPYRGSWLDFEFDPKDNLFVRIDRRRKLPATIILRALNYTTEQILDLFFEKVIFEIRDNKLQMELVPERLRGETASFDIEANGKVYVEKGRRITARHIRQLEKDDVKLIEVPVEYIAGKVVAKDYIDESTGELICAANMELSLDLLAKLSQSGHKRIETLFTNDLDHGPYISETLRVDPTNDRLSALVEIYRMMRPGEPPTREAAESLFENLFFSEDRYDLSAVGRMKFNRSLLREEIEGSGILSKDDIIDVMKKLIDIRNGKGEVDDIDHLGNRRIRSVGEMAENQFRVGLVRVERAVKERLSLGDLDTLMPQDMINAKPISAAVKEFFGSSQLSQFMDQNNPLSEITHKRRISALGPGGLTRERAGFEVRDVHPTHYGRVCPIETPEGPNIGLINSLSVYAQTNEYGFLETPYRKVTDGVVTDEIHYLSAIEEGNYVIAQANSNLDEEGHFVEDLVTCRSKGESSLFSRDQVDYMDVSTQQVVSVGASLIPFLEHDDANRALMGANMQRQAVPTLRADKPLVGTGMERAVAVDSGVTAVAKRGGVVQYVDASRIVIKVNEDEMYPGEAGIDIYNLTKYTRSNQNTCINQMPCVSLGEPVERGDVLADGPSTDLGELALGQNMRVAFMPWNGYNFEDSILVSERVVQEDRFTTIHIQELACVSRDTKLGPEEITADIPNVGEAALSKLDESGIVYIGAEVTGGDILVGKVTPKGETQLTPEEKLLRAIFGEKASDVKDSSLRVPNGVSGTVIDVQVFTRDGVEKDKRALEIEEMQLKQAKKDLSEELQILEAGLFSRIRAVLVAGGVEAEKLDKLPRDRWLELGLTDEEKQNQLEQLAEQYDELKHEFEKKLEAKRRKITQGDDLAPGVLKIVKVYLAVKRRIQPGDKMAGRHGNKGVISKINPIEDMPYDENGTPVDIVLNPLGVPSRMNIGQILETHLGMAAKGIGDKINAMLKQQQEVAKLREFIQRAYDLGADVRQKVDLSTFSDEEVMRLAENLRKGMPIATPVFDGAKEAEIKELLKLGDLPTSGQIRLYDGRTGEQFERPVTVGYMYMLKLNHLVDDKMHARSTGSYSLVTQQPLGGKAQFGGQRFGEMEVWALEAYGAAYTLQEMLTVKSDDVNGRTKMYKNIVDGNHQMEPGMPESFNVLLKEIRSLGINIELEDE

RNAP β' subunit = target: T2, RNAP β' subunit (Escherichia coli, UniProt P0A8T7 1-1407); assay: as above; conditions: both partners purified
T2 construct: RNA polymerase beta' subunit, Escherichia coli, as in the core enzyme m2; Stood in the structure as a subunit of the RNAP elongation complex; source: part of the purified E. coli RNAP core enzyme
T2 sequence (P0A8T7 whole entry): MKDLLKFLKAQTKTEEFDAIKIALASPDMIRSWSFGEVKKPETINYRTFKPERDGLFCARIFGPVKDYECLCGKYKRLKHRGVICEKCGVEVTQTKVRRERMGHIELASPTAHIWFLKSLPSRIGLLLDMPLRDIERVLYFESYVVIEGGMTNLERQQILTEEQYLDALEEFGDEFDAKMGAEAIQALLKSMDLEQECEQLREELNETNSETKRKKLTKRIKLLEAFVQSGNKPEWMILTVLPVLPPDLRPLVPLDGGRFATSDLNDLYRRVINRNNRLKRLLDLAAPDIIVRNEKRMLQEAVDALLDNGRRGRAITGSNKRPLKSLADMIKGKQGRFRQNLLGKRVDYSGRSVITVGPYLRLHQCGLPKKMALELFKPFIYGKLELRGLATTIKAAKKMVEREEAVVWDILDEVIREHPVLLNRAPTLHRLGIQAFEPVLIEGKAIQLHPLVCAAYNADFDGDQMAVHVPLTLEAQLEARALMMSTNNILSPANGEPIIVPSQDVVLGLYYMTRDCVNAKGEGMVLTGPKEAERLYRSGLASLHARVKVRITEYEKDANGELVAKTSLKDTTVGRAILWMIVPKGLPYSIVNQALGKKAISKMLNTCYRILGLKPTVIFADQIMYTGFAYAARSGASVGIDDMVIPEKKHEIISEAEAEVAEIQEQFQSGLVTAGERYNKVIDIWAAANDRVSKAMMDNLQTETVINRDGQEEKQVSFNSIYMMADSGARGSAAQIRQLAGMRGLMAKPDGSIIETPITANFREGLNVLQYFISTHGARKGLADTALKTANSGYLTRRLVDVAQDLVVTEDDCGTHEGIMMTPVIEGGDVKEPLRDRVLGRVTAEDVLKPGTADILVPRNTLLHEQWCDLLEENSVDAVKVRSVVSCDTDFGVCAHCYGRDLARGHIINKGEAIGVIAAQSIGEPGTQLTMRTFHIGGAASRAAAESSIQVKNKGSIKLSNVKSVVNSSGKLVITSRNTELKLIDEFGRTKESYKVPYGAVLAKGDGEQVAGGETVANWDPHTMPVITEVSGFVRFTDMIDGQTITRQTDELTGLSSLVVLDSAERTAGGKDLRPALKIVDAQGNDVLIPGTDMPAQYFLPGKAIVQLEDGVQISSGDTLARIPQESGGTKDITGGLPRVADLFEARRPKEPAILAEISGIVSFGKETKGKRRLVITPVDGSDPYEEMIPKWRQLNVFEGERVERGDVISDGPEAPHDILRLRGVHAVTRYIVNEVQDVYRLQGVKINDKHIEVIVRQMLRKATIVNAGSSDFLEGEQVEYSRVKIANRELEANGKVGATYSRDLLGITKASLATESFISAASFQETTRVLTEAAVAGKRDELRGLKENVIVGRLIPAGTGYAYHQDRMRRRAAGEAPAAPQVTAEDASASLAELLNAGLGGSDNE

B1: N-terminal His-tagged RapA protein (enzyme, Escherichia coli)
chain: MPFTLGQRWISDTESELGLGTVVAVDARTVTLLFPSTGENRLYARSDSPVTRVMFNPGDTITSHDGWQMQVEEVKEENGLLTYIGTRLDTEESGVALREVFLDSKLVFSKPQDRLFAGQIDRMDRFALRYRARKYSSEQFRMPYSGLRGQRTSLIPHQLNIAHDVGRRHAPRVLLADEVGLGKTIEAGMILHQQLLSGAAERVLIIVPETLQHQWLVEMLRRFNLRFALFDDERYAEAQHDAYNPFDTEQLVICSLDFARRSKQRLEHLCEAEWDLLVVDEAHHLVWSEDAPSREYQAIEQLAEHVPGVLLLTATPEQLGMESHFARLRLLDPNRFHDFAQFVEEQKNYRPVADAVAMLLAGNKLSNDELNMLGEMIGEQDIEPLLQAANSDSEDAQSARQELVSMLMDRHGTSRVLFRNTRNGVKGFPKRELHTIKLPLPTQYQTAIKVSGIMGARKSAEDRARDMLYPERIYQEFEGDNATWWNFDPRVEWLMGYLTSHRSQKVLVICAKAATALQLEQVLREREGIRAAVFHEGMSIIERDRAAAWFAEEDTGAQVLLCSEIGSEGRNFQFASHMVMFDLPFNPDLLEQRIGRLDRIGQAHDIQIHVPYLEKTAQSVLVRWYHEGLDAFEHTCPTGRTIYDSVYNDLINYLASPDQTEGFDDLIKNCREQHEALKAQLEQGRDRLLEIHSNGGEKAQALAESIEEQDDDTNLIAFAMNLFDIIGINQDDRGDNMIVLTPSDHMLVPDFPGLSEDGITITFDREVALAREDAQFITWEHPLIRNGLDLILSGDTGSSTISLLKNKALPVGTLLVELIYVVEAQAPKQLQLNRFLPPTPVRMLLDKNGNNLAAQVEFETFNRQLNAVNRHTGSKLVNAVQQDVHAILQLGEAQIEKSARALIDAARNEADEKLSAELSRLEALRAVNPNIRDDELTAIESNRQQVMESLDQAGWRLDALRLIVVTHQ
notes: RapA (HepA), RNA polymerase-associated Swi2/Snf2 ATPase, Escherichia coli; construct of the cryo-EM sample; also called HepA
- binding result (RNAP β subunit): binds
- binding result (RNAP β' subunit): binds
